Results taken from PMC8958351, “Ubiquitylation of cyclin C by HACE1 regulates cisplatin‐associated sensitivity in gastric cancer” (Clinical and Translational Medicine, 2022).

Key:
Test in all cases: pull-down; GST pull-down; purified GST-HACE1 proteins incubated with purified cyclin C-MBP-His for 6 h at 4°C in 50 mM Tris-Cl, 200 mM NaCl, 1 mM EDTA, 1% NP-40, 1 mM DTT, 10 mM MgCl2, 10 μg/ml BSA, pH 8.0; GST pulled down, cyclin C immunoblotted
Conditions in all cases: both partners purified
[1] = molecular target: T1, GST‐HACE1 truncation, amino acids 547–909 (human, UniProt Q8IYU2 547-909)
T1 sequence (looked up): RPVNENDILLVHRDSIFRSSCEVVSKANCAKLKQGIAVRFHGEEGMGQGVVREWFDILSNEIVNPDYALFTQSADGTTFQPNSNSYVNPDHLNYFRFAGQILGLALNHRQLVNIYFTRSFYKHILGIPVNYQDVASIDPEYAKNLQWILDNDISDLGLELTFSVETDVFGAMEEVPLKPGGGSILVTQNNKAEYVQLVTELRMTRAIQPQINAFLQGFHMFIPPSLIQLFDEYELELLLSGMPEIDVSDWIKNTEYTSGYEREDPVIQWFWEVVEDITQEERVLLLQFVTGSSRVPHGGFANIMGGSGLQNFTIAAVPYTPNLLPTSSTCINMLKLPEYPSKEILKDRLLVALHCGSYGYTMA

GST‐HACE1 = molecular target: T2, GST‐HACE1 (human, UniProt Q8IYU2 1-909)
T2 construct: HACE1, human; the cDNA encoding HACE1 cloned into pGEX4T-1; also called recombinant glutathione (GST)‐tagged HACE1; GST‐fused HACE1
T2 sequence (looked up): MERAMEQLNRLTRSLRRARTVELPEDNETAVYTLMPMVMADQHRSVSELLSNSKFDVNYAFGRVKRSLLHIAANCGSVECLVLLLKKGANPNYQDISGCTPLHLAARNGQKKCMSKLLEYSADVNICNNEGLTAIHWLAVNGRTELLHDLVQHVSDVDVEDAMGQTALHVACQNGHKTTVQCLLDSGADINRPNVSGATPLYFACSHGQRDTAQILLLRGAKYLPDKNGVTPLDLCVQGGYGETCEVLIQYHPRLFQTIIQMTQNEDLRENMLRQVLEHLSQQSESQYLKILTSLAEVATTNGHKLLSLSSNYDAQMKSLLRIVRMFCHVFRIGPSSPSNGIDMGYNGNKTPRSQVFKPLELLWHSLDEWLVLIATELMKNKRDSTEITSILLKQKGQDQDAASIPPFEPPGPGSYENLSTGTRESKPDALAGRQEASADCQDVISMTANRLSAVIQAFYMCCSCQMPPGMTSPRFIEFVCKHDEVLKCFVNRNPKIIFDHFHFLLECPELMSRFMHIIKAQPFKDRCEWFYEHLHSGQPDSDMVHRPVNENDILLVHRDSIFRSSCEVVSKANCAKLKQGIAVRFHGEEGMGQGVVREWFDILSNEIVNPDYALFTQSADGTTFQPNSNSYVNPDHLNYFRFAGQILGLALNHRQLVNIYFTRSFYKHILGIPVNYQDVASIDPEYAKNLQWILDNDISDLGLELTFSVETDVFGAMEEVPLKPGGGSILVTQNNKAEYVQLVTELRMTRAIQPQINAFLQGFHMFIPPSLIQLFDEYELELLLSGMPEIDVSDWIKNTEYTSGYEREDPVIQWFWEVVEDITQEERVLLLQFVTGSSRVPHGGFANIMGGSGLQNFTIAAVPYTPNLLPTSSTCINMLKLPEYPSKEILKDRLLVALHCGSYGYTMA

[2] = molecular target: T3, GST‐HACE1 truncation, amino acids 258–909 (human, UniProt Q8IYU2 258-909)
T3 sequence (looked up): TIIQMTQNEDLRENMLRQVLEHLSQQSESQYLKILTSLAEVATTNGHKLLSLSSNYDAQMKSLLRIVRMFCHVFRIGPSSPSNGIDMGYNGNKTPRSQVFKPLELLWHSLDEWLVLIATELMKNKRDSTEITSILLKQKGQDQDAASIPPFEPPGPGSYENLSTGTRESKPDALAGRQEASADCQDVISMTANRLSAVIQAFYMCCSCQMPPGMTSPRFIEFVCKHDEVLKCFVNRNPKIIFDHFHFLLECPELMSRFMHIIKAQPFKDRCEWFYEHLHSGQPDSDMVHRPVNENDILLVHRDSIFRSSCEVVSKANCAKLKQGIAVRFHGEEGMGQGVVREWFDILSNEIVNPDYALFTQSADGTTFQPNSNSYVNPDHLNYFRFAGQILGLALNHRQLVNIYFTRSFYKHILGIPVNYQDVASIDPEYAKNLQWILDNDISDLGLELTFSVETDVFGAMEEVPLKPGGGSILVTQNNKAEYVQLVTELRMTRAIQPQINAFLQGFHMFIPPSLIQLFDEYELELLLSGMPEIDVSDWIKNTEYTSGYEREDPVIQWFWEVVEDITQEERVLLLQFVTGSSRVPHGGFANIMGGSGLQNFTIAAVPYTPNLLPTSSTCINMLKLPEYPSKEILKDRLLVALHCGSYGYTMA

[3] = molecular target: T4, GST‐HACE1 truncation, amino acids 1–546 (human, UniProt Q8IYU2 1-546)
T4 sequence (looked up): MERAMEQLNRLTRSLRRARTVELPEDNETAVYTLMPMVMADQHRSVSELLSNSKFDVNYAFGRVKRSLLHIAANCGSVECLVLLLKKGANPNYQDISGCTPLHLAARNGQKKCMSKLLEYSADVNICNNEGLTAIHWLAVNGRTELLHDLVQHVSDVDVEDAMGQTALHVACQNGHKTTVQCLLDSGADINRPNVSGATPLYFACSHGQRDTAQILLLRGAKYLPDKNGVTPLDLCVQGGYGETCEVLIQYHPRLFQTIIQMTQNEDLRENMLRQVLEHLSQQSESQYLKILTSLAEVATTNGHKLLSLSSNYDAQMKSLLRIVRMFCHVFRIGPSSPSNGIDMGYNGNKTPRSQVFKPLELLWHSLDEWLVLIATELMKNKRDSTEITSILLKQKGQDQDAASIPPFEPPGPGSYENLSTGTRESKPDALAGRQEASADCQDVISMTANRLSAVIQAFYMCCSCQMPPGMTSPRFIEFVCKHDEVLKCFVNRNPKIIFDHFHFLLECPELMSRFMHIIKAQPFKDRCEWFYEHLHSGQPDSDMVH

- binding result [1]: binds
- binding result (GST‐HACE1): binds
- binding result [2]: binds
- binding result [3]: binds
B1: MBP‐His‐tagged cyclin C (natural protein, human)
chain: MAGNFWQSSHYLQWILDKQDLLKERQKDLKFLSEEEYWKLQIFFTNVIQALGEHLKLRQQVIATATVYFKRFYARYSLKSIDPVLMAPTCVFLASKVEEFGVVSNTRLIAAATSVLKTRFSYAFPKEFPYRMNHILECEFYLLELMDCCLIVYHPYRPLLQYVQDMGQEDMLLPLAWRIVNDTYRTDLCLLYPPFMIALACLHVACVVQQKDARQWFAELSVDMEKILEIIRVILKLYEQWKNFDERKEMATILSKMPKPKPPPNSEGEQGPNGSQNSSYSQS
notes: Cyclin C, human; the cDNA of CCNC cloned into pSJ8 (pET21a derivative, MBP-His fusion vector); also called cyclin C‐MBP‐His; source: Escherichia coli BL21, purified (Ni‐NTA agarose beads)
